In patent US6602687B1, “DNA encoding human ciliary neurotrophic factor and method for producing the protein encoded thereby” (Regeneron Pharmaceuticals, Inc., priority 1989, dated 2003):

How the values were obtained:
[1] = test system: E8 chick ciliary ganglion neurons; test: Survival of dissociated E8 chick ciliary ganglion neurons; format: cell-based; settings: saturating levels of recombinant human CNTF; 48 hr
In short: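 In one protocol, dissociated E8 chick ciliary ganglion cells (2,000 per well, HEBM with 20% horse serum) were held 24 h at 37 °C, fixed, and surviving neurons counted by phase contrast. In another, trypsinized, pre-plating-enriched neurons on polyornithine-laminin (8,000-10,000 per dish, F14 with 5% horse serum) were scored as percentage process-bearing at 48 h, in triplicate.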

[2] = test system: metrizamide gradient purified ventral spinal cord motorneurons; test: CAT activity in metrizamide gradient-purified motorneurons; format: cell-based, rat; settings: CNTF 10 ng/ml; purified motorneuron cultures
Method: Cultures were harvested by lysing the cells in a 20 mM Tris-HCl (pH 8.6) solution containing 0.1% Triton X-100. Two microliters of the cell lysate was removed and assayed for CAT activity according to the micro-Fonnum procedure (Fonnum, 1975, J. Neurochem. 24:407-409). The final substrate composition consisted of 0.2 mM [1-^14C] Acetyl-CoA (NEN, 54.4 mCi/mmol), 300 mM NaCl, 8 mM choline bromide, 20 mM EDTA, and 0.1 mM neostigmine in 50 mM NaH2PO4 (pH 7.4) buffer. At these enzyme and substrate concentrations, the enzymatic reaction was linear for 90-120 minutes. The specificity of the induction for CAT was tested by the addition of a specific inhibitor of CAT activity, N-hydroxyethyl-4-(1-napthylvinyl) pyridium (HNP), during the assay (White and Cavallito, 1970, J. Neurochem. 17:1579-1589).
The fractionation procedure (Dohrman et al., 1986, Dev. Biol. 118:209-221) was a modification of the method described by Schnaar and Schaffner (1981, J. Neurosci. 1:204-207). Metrizamide was dissolved in F12:MEM(1:1) medium, and a step gradient consisting of 3 ml 17% metrizamide, 3 ml 12% metrizamide and 3 ml 8% metrizamide was prepared. The following steps were all carried out at 4° C. The ventral horn cell suspension (2.5 ml) obtained as described previously was layered over the step gradient, the tube was centrifuged at 2500×g for 20 minutes using a swing-out rotor. […]

[3] = test system: E18-19 rat hippocampal neurons; test: GAD enzyme activity in hippocampal cultures; format: cell-based; settings: recombinant rat CNTF 0.1 ng/ml; 8 days
Method: Hippocampi were dissected from E18-19 rat embryos of Sprague-Dawley rats, and collected in F10 medium. The tissues were minced, rinsed twice with F10 medium (Gibco) and trypsinized with 0.25% trypsin (Gibco) for 20 minutes at 37° C. Trypsin was inactivated by the addition of a serum-containing medium composed of minimal essential medium (MEM) supplemented with fetal calf serum (FCS, 10%), glutamine (2 mM), penicillin (25 U/ml) and streptomycin (25 ug/ml). Dissociated cells obtained by gentle trituration were collected and centrifuged at low speed (500 rpm) for 30 seconds. The centrifugation was repeated twice, and the cell pellets were then resuspended in serum-containing medium. The cells were then plated onto 6 mm wells or 35 mm dishes that were coated with polyornithine (10 ug/ml) and laminin (10 ug/ml). In most of the experiments, the cells were plated at a low density of approximately 71,000 cells/cm^2. […]
GAD enzyme activity was determined according to the method of Kimura and Kuriyama (1975, Jpn J. Pharm. 25:189-195) by measuring the release of ^14CO2 from L-[1-^14C] glutamic acid. […] The incubation was then continued for another 60 minutes. ^14CO2 released was trapped in Hyamine base solution, and was counted. […]

B1: CNTF: ciliary neurotrophic factor; recombinant rat CNTF in Sections 10, 15, 17, purified rat sciatic nerve CNTF in Section 11; see endpoint conditions (protein, UniProt P20294 1-200, looked up)
Ciliary neurotrophic factor: MAFAEQTPLTLHRRDLCSRSIWLARKIRSDLTALMESYVKHQGLNKNINLDSVDGVPVASTDRWSEMTEAERLQENLQAYRTFQGMLTKLLEDQRVHFTPTEGDFHQAIHTLMLQVSAFAYQLEELMVLLEQKIPENEADGMPATVGDGGLFEKKLWGLKVLQELSQWTVRSIHDLRVISSHQMGISALESHYGAKDKQM
- neurons surviving and elaborating long neurites [1]: 60-70%
- increase in CAT activity versus untreated cultures [2]: 10 fold
- maximal increase in GAD enzyme activity [3]: 3.8 fold
